Laboratory results taken from EP2974737A1 (Ablynx N.V., dated 2016).
Changes are numbered by the printed parent chain.

Experiments:
Experiment in all cases: SPR, interference factor immobilized; % of Fig. 9 reference
[1] = target: T1, purified interference factor(s) from Donor A (human)
T1 construct: also called interference in serum from Donor A

[2] = target: T2, purified interference factor(s) from Donor B (human)
T2 construct: the text names the donors 8, 19 and 30; also called interference in serum from Donor B

[3] = target: T3, purified interference factor(s) from Donor C (human)
T3 construct: the text names the donors 8, 19 and 30; also called interference in serum from Donor C

B1: SEQ ID NO: 43 (VHH)
chain: DVQLVESGGGLVQPGGSLRLSCAASGFILDYYAIGWFRQAPGKEREGVLCIDASDDITYYADSVKGRFTISRDNSKNTVYLQMNSLRPEDTAVYYCATPIGLSSSCLLEYDYDYWGQGTLVTVSSGGGGSGGGSEVQLLESGGGLVQPGGSLRLSCAASGFTFRSFGMSWVRQAPGKGPEWVSSISGSGSDTLYADSVKGRFTISRDNSKNTLYLQMNSLRPEDTAVYYCTIGGSLSRSSQGTLVTVSSA
With B1 the “interference binding, % of Reference Sequence” value (shortened to “interference binding, %”) [1] was 3% and the “interference binding, %” value [2] was 20%.

B2: SEQ ID NO: 65 (VHH)
VHH: EVQLVESGGGLVQAGGSLRLSCAASRSIGRLDRMGWYRHRPGEPRELVATITGGSSINYGDSVKGRFTISIDNSKNTVYLQMNSLRPEDTAVYYCNFNKYVTSRDTWGQGTLVTVSS
For B2, the “interference binding, %” value [1] was 73%, the “interference binding, %” value [3] was 64% and the “interference binding, %” value [2] was 121%.

B3: SEQ ID NO: 80 (VHH)
VHH: B2 VHH with A14P, T114Q, S116G, S117G
With B3 the “interference binding, %” value [1] was 65%, the “interference binding, %” value [3] was 58% and the “interference binding, %” value [2] was 5%.

B4: SEQ ID NO: 72 (VHH)
VHH: B2 VHH with A14P, S116G, S117G
For B4, the “interference binding, %” value [1] was 70%, the “interference binding, %” value [3] was 56% and the “interference binding, %” value [2] was 47%.

B5: SEQ ID NO: 84 (VHH)
VHH: B2 VHH with A14P, S116G
In the case of B5, the “interference binding, %” value [1] is reported as 84%, the “interference binding, %” value [3] is reported as 83% and the “interference binding, %” value [2] is reported as 50%.

B6: SEQ ID NO: 69 (VHH)
VHH: B2 VHH with A14P, L112Q
With B6 the “interference binding, %” value [1] was 80%, the “interference binding, %” value [3] was 84% and the “interference binding, %” value [2] was 120%.

B7: SEQ ID NO: 77 (VHH)
VHH: B2 VHH with A14P
For B7, the “interference binding, %” value [1] was 2%, the “interference binding, %” value [3] was 13% and the “interference binding, %” value [2] was 12%.

B8: SEQ ID NO: 89 (VHH)
VHH: B2 VHH with L11S, T114Q, S116G, S117G
For B8, the “interference binding, %” value [1] was 14%, the “interference binding, %” value [3] was 17% and the “interference binding, %” value [2] was 5%.

B9: SEQ ID NO: 73 (VHH)
VHH: B2 VHH with A14P, S116G, S117G
With B9 the “interference binding, %” value [1] was 6%, the “interference binding, %” value [3] was 9% and the “interference binding, %” value [2] was 8%.

B10: SEQ ID NO: 85 (VHH)
VHH: B2 VHH with L11S, A14P, T114Q, S116G, S117G
B10 was tested, and the “interference binding, %” value [1] was 46%, the “interference binding, %” value [3] was 42% and the “interference binding, %” value [2] was 5%.

B11: SEQ ID NO: 74 (VHH)
VHH: B2 VHH with A14P
For B11, the “interference binding, %” value [1] was 4%, the “interference binding, %” value [3] was 33% and the “interference binding, %” value [2] was 41%.

B12: SEQ ID NO: 68 (VHH)
VHH: B2 VHH with L112Q
B12 was tested, and the “interference binding, %” value [1] was 38%, the “interference binding, %” value [3] was 49% and the “interference binding, %” value [2] was 115%.

B13: SEQ ID NO: 76 (VHH)
VHH: B2 VHH with A14P
In the case of B13, the “interference binding, %” value [1] is reported as 2%, the “interference binding, %” value [3] is reported as 20% and the “interference binding, %” value [2] is reported as 17%.

B14: SEQ ID NO: 70 (VHH)
VHH: B2 VHH with A14P, T114Q
For B14, the “interference binding, %” value [1] was 90%, the “interference binding, %” value [3] was 98% and the “interference binding, %” value [2] was 105%.

B15: SEQ ID NO: 67 (VHH)
VHH: B2 VHH with A14P, R86K
For B15, the “interference binding, %” value [1] was 102%, the “interference binding, %” value [3] was 96% and the “interference binding, %” value [2] was 117%.

B16: SEQ ID NO: 88 (VHH)
VHH: B2 VHH with L11S, A14P, T114Q
B16 was tested, and the “interference binding, %” value [1] was 1%, the “interference binding, %” value [3] was 11% and the “interference binding, %” value [2] was 5%.

B17: SEQ ID NO: 81 (VHH)
VHH: B2 VHH with L11V, A14P
B17 was tested, and the “interference binding, %” value [1] was 94%, the “interference binding, %” value [3] was 89% and the “interference binding, %” value [2] was 50%.

B18: SEQ ID NO: 71 (VHH)
VHH: B2 VHH with A14P, S117G
B18 was tested, and the “interference binding, %” value [1] was 88%, the “interference binding, %” value [3] was 87% and the “interference binding, %” value [2] was 105%.

B19: SEQ ID NO: 82 (VHH)
VHH: B2 VHH with A14P, P87A
With B19 the “interference binding, %” value [1] was 96%, the “interference binding, %” value [3] was 100% and the “interference binding, %” value [2] was 80%.

B20: SEQ ID NO: 83 (VHH)
VHH: B2 VHH with A14P, T90A
B20 was tested, and the “interference binding, %” value [1] was 56%, the “interference binding, %” value [3] was 61% and the “interference binding, %” value [2] was 73%.

B21: SEQ ID NO: 78 (VHH)
VHH: B2 VHH with Q13R, A14P
With B21 the “interference binding, %” value [1] was 96%, the “interference binding, %” value [3] was 100% and the “interference binding, %” value [2] was 96%.

B22: SEQ ID NO: 66 (VHH)
VHH: B2 VHH with L11S, A14P
In the case of B22, the “interference binding, %” value [1] is reported as 81%, the “interference binding, %” value [3] is reported as 84% and the “interference binding, %” value [2] is reported as 29%.

B23: SEQ ID NO: 75 (VHH)
VHH: B2 VHH with A14P
In the case of B23, the “interference binding, %” value [1] is reported as 1%, the “interference binding, %” value [3] is reported as 16% and the “interference binding, %” value [2] is reported as 11%.

B24: SEQ ID NO: 86 (VHH)
VHH: B2 VHH with L11S, A14P, T114Q
B24 was tested, and the “interference binding, %” value [1] was 76%, the “interference binding, %” value [3] was 86% and the “interference binding, %” value [2] was 6%.

B25: SEQ ID NO: 79 (VHH)
VHH: B2 VHH with A14P
For B25, the “interference binding, %” value [1] was 1%, the “interference binding, %” value [3] was 13% and the “interference binding, %” value [2] was 17%.

B26: SEQ ID NO: 87 (VHH)
VHH: B2 VHH with L11S, A14P, S116G, S117G
B26 was tested, and the “interference binding, %” value [1] was 51%, the “interference binding, %” value [3] was 39% and the “interference binding, %” value [2] was 5%.

B27: SEQ ID NO: 47 (VHH)
VHH: EVQLVESGGGLVQPGGSLRLSCAASGSVFKINVMAWYRQAPGKGRELVAGIISGGSTSYADSVKGRFTISRDNAKNTLYLQMNSLRPEDTAVYYCAFITTESDYDLGRRYWGQGTLVTVSS
In the case of B27, the “interference binding, %” value [1] is reported as 1%.

B28: SEQ ID NO: 42 (VHH)
chain: EVQLVESGGGLVQPGGSLRLSCAASGRTFSYNPMGWFRQAPGKGRELVAAISRTGGSTYYPDSVEGRFTISRDNAKRMVYLQMNSLRAEDTAVYYCAAAGVRAEDGRVRTLPSEYTFWGQGTQVTVSSAAAEVQLVESGGGLVQPGGSLRLSCAASGRTFSYNPMGWFRQAPGKGRELVAAISRTGGSTYYPDSVEGRFTISRDNAKRMVYLQMNSLRAEDTAVYYCAAAGVRAEDGRVRTLPSEYTFWGQGTQVTVSSA
B28 was tested, and the “interference binding, %” value [1] was 1% and the “interference binding, %” value [2] was 4%.

B29: SEQ ID NO: 38 (VHH)
chain: EVQLVESGGGLVQPGGSLRLSCAASGFTFSSYAMSWVRQAPGKGLEWVSGIKSSGDSTRYAGSVKGRFTISRDNAKNTLYLQMNSLRPEDTAVYYCAKSRVSRTGLYTYDNRGQGTLVTVSSGGGGSGGGGSGGGGSGGGGSEVQLVESGGGLVQPGGSLRLSCAASGRTFNNYAMGWFRQAPGKEREFVAAITRSGVRSGVSAIYGDSVKDRFTISRDNAKNTLYLQMNSLRPEDTAVYYCAASAIGSGALRRFEYDYSGQGTLVTVSSA
With B29 the “interference binding, %” value [1] was 9%, the “interference binding, %” value [3] was 7% and the “interference binding, %” value [2] was 25%.
